Patent US20240425575A1 (SOTER BIOPHARMA PTE, published 2024)

T1: recombinant human ANG2 protein corresponding to Lys275-Phe496 of human ANG2 (human, UniProt O15123 275-496)
T1 construct: also called hANG2
T1 sequence: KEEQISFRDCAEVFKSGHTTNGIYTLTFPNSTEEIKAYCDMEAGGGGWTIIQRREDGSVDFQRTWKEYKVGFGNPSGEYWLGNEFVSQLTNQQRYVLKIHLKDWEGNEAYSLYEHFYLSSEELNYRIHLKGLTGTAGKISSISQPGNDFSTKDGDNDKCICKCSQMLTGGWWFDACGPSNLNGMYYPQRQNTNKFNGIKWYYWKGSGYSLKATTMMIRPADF


Biological target: T1, recombinant human ANG2 protein …
Assay: ELISA, hANG2 coated, E. coli supernatant, anti-VHH-HRP
Method: Single colonies of TG1 host strains of the obtained ten strains of heavy-chain single-domain antibodies were selected, inoculated and cultured overnight. On the next day, the overnight strains were transferred, amplified, induced by 0.5 mM IPTG and cultured in a shaker overnight at 37° C. On the next day, centrifugation was performed to collect supernatant for detection.
An ELISA plate was separately coated with an hANG2 protein solution and BSA in […] and placed overnight at 4° C. Supernatant was discarded, and 300 μL blocking solution (PBS containing 3% BSA) was added to each well and blocked for 2 h at 37° C. Supernatant collected after centrifugation was added to wells of the ELISA plate in 200 μL per well and subjected to standing incubation for 2 h at room temperature, and supernatant was discarded. Washing was performed with PBST (PBS contained 0.1% Tween 20) in 200 μL/well three times. Diluted HRP-labeled anti-VHH secondary antibodies (Genscript, A01861) were added in a volume of 100 μL/well and incubated for 1 h at room temperature, wherein the secondary antibodies were used after dilution according to 1:10000 with a diluent of PBS containing 1% BSA. Washing was performed with PBST in 200 μL/well five times. A TMB color developing solution (BD, 55214) was added in 100 μL/well, and color developing was performed for 8 min at 37° C.2M HCl stopping solution was added in 100 μL/well. After the stopping solution was added, values at 450 nm were read with a microplate reader within 30 minutes.

| Binder | OD Value Obtained after Binding to hANG2 |
| --- | --- |
| B2-F10 (VHH, Tested as E. coli TG1 culture supernatant (phagemid pComb3XSS); also called anti-ANG2 heavy-chain single-domain antibody B2-F10) VHH: QVQLVESGGGLVQAGGSLRLSCGASGSAVSITLMAWYRQAPGKQRELVAGISNIGDTNYVDSVKDRFTISRINAKNAMYLQMNSLKPEDTAVYYCFAQDWGGHHYWGQGTQVTVSS | 2.06 OD 450 nm |
| B4-C11 (VHH, Tested as E. coli TG1 culture supernatant (phagemid pComb3XSS); also called anti-ANG2 heavy-chain single-domain antibody B4-C11) VHH: QVQLVESGGGLVQAGGSLRLSCAASGSTFSNVVAGWYRQAPGKQRELVAGISNIGDTRYADSVKGRFTISRDNAKKAVYLQMNSLKPEDTAVYYCYAKYWARDYWGQGTQVTVSS | 1.58 OD 450 nm |
| B3-H7 (VHH, Tested as E. coli TG1 culture supernatant (phagemid pComb3XSS); also called anti-ANG2 heavy-chain single-domain antibody B3-H7) VHH: EVQVVESGGGLVQAGGSLRLSCAASGSTAINSVAGWYRQAPGKQRELVAGISNIGDTRYADSVKGRFTISRDNAKKTVYLQMNSLKSEDTAVYYCYAKYWARDYWGQGTQVTVSS | 1.82 OD 450 nm |
| B1-H9 (VHH, Tested as E. coli TG1 culture supernatant (phagemid pComb3XSS); also called anti-ANG2 heavy-chain single-domain antibody B1-H9) VHH: EVQLVESGGDLVQAGGSLRLSCAASGSTFSSTIAGWYRQAPGKQRELVAGISNIGDTRYADSVKGRFTISRDNAKKTVYLQMNSLKPEDTAVYYCYAKYWARDYWGQGTQVTVSS | 1.5 OD 450 nm |
| B2-E2 (VHH, Tested as E. coli TG1 culture supernatant (phagemid pComb3XSS); also called anti-ANG2 heavy-chain single-domain antibody B2-E2) VHH: EVQLVESGGGLVQPGESLRLSCVASGFPSGFTFSDYQMYWYRQAPGKERELVAIISNDGLRKTYADSVKGRFTISRDNAKNTMFLQMNSLKPEDTAVYVCNVRRANRDDWGQGTQVTVSS | 1.96 OD 450 nm |
| B4-D3 (VHH, Tested as E. coli TG1 culture supernatant; also called anti-ANG2 heavy-chain single-domain antibody B4-D3) VHH: QLQLVESGGGLVQPGGSLRLSCVASGASGISFSNRGMAWYRQAPGKQRELVAAIDSAGSPAYAGSVKGRFTISRDNAKNTVFLQMNSLKPEDTAVYYCNQPRFNLWGLGTQVTVSS | 1.68 OD 450 nm |
| B1-G8 (VHH, Tested as E. coli TG1 culture supernatant (phagemid pComb3XSS); also called anti-ANG2 heavy-chain single-domain antibody B1-G8) VHH: QVQLVESGGGLVQTGDSLRLSCVAPGISFSNRGMAWYRQAPGKQRELVAAIDSAGSQRYAGSVKDRFTISRDNAKNTVFLQMNSLKPEDTAVYYCNQPRFNLWGQGTQVTVSS | 2.02 OD 450 nm |
| B1-G3 (VHH, Tested as E. coli TG1 culture supernatant (phagemid pComb3XSS); also called anti-ANG2 heavy-chain single-domain antibody B1-G3) VHH: EVQVVESGGGLVQPGGSLRLSCVASMPSGISFSNRGMAWYRQAPGKQRELVAAIDSAGSTRYQDSVKGRFTISRDNAKNTVFLQMNSLKPEDTAVYYCNQPAFKAWGQGTQVTVSS | 1.57 OD 450 nm |
| B3-C11 (VHH, Tested as E. coli TG1 culture supernatant (phagemid pComb3XSS); also called anti-ANG2 heavy-chain single-domain antibody B3-C11) VHH: EVQLVESGGGLVQAGGSLRLSCFVSGSTFSASLMGWYRQAPGKERELVAGISNIGNTVYADSAKGRFTISRDGAKNTVHLQMNALKPEDTAVYYCYATVPRAAWGQGTQVTVSS | 1.63 OD 450 nm |
| B2-A6 (VHH, Tested as E. coli TG1 culture supernatant (phagemid pComb3XSS); also called anti-ANG2 heavy-chain single-domain antibody B2-A6) VHH: QLQLVESGGGLVQAGGSLRLSCFVSGSTFSASLMGWYRQAPGKERELVAGISNIGNTVYADSAKGRFTISRDGAKNTVHLQMNALKPEDTAVYYCYATVPRAAWGQGTQVTVSS | 2.39 OD 450 nm |
